In patent US20250339569A1 (3B PHARMACEUTICALS, published 2025):
One block for each binder: values may come before it. Starred links: 1 amine or outer side, 2 acyl side, 3 side chain; linkers in the order of their positions; H or OH if unused. Positions of bridges follow the written chain, without caps; N, C: chain ends. Non-standard residues stand in square brackets, D forms with d. Primed or numbered codes have the meaning given here. *: point of attachment. Aph(SaPr)(5) = 4-amino-L-phenylalanine acylated on the ring amine with 3-sulfamoylpropanoic acid, NS(=O)(=O)CCC(=O)Nc1ccc(C[C@H](N[*:1])C(=O)[*:2])cc1; Ttds(4) = 1,13-diamino-4,7,10-trioxatridecan-succinamic acid spacer, O=C(CCC(=O)[*:2])NCCCOCCOCCOCCCN[*:1]; PPAc(3) = 4-carboxymethyl piperazine linker between DOTA and Gln1, O=C(CN1CCN([*:1])CC1)[*:2]; 111In‑DOTA = O=C([O-])CN1CCN(CC(=O)[O-])CCN(CC(=O)*)CCN(CC(=O)[O-])CC1.[111In+3]; Phe(3-NHCO(CH2)3SO2NH2) = N[C@@H](Cc1cccc(NC(=O)CCCS(N)(=O)=O)c1)C(=O)O; APAc″ = 2-(4-(amino)piperidin-1-yl)acetic acid, NC1CCN(CC(=O)*)CC1; DOTA = O=C(O)CN1CCN(CC(=O)O)CCN(CC(=O)*)CCN(CC(=O)O)CC1; Biotin = O=C1N[C@H]2[C@H](CS[C@H]2CCCCC(=O)*)N1; PPAc = 4-carboxymethyl piperazine linker; mXylylene = c1cc(C[*:1])cc(C[*:2])c1; Cy5SO3 = Cy5 dye with one sulfonate; Dap = NC[C@H](N)C(=O)O; Sni = not defined here

How the values were obtained:
[1] = biological target: T1, canine carbonic anhydrase 9 (CAIX) (dog); assay: radioligand saturation binding on CHO-dgCAIX cells, 8 h at 37 °C, experiment ii
T1 construct: Expressed on transfected CHO cells (CHO-dogCA9); also called dgCAIX; dog CAIX
T1 sequence (chain, as listed by the source limits assumed): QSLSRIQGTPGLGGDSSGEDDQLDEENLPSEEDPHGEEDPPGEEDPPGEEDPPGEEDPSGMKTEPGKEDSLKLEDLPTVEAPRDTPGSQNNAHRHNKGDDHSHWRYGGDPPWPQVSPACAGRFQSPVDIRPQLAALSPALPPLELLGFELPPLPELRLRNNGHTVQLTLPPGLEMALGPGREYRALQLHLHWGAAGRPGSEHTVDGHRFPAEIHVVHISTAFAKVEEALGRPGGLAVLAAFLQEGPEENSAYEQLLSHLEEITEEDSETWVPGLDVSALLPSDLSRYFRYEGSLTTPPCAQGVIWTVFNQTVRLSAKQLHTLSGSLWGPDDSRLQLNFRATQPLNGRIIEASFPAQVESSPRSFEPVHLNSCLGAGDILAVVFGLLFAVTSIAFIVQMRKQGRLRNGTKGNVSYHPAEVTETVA
Protocol: The radioligand saturation binding on CHO-huCAIX and dgCAIX was determined as follows. […] To determine total binding, 700 μL of binding medium and 100 μL of the radioligand dilutions were added to the wells in triplicates. […] The plates were incubated for 8 h at 37° C. under standard cell culture conditions (5% CO2). At the end of the incubation time the plates were placed on ice while aspirating the radioligand solutions. Aliquots of the 20 nM supernatants were transferred to HPLC vials for analysis of radioligand stability over the incubation time. Subsequently, the cells were washed with ice-cold PBS (0.5 mL, 1 mL, 1 mL). 300 μL of RIPA buffer containing PIC was added to each well and the plates were placed on a shaker for 10 min at ambient temperature. 200 μL of the cell lysate of each well was transferred to gamma-counting tubes. Their associated radioactivity was counted using a gamma counter and normalized to the measured protein concentration of each well (see chapter 6.3.7 BCA protein assay). An aliquot of each radioligand dilution was included in the gamma counter measurements to allow for determination of the actual radioligand concentrations in the dilution series.

[2] = biological target: T2, human carbonic anhydrase XIV (CAXIV), biotinylated (human, UniProt Q9ULX7 16-290, biotinylated); assay: SPR, biotinylated CAXIV captured (Biotin CAPture)
T2 construct: Bought (SinoBiological Cat #10458-H08H); also called hCAXIV-bio
T2 sequence (Q9ULX7 16-290 limits assumed): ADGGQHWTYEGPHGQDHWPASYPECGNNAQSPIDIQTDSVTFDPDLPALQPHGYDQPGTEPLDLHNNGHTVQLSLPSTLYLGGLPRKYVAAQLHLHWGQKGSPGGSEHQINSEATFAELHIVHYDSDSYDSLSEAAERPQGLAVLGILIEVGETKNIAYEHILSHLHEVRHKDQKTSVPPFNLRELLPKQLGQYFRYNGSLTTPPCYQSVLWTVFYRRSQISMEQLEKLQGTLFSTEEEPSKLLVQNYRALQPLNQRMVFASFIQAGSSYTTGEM
From the text: (§1) For each test compound, SPR raw data in the form of resonance units (RU) were plotted as sensorgrams using the Biacore™ T200 control software. The signal from the blank sensorgram was subtracted from that of the test compound sensorgram (blank corrected). The blank corrected sensorgram was corrected for baseline drift by subtracting the sensorgram of a SCK run without the test compound (running buffer only). […] Raw data and fit results were imported as text files in IDBS. The pKD value (negative decadic logarithm of dissociation constant) was calculated in the IDBS excel template.

[3] = biological target: T3, human carbonic anhydrase IV (CAIV), biotinylated (human, UniProt P22748 19-283, limits assumed, biotinylated); assay: SPR, biotinylated CAIV captured (Biotin CAPture)
T3 construct: Bought (SinoBiological, Cat # printed 10472-1H081H); also called hCAIV-bio
T3 sequence (P22748 19-283 limits assumed): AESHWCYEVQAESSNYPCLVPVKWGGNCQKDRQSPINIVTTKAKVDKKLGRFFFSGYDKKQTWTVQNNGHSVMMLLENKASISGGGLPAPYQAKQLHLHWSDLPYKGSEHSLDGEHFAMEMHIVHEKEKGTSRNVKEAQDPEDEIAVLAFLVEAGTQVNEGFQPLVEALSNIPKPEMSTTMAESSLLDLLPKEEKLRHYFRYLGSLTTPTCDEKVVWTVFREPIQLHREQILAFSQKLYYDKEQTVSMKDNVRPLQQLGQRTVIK
From the text: as §1

[4] = biological target: T4, Fc-fusion protein of human carbonic anhydrase IX (human, UniProt Q16790 38-414); assay: SPR, captured hCAIX-Fc; pKD category A: >8.0
[5] = biological target: T5, human carbonic anhydrase XII (CAXII), biotinylated (human, UniProt O43570 25-301, biotinylated); assay: SPR, biotinylated CAXII captured (Biotin CAPture)
T5 construct: Bought (SinoBiological Cat #10617-H08H); also called hCAXII-bio
T5 sequence (O43570 25-301 limits assumed): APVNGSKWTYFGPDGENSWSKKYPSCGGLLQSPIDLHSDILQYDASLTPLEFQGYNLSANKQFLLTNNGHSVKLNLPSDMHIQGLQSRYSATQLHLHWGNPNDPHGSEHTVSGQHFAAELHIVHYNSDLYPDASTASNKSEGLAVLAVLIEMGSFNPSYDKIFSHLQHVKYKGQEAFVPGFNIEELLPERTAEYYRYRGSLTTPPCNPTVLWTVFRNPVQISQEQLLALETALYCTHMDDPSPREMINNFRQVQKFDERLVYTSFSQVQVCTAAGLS
From the text: as §1

[6] = biological target: T4, Fc-fusion protein of human carbonic …; assay: SPR, CAIX; pKD category A: >8.0
Protocol: Stock solutions of test compounds were prepared by dissolving each compound in DMSO. DMSO stock solution were diluted 1:1000 in Running Buffer without DMSO. […] SPR binding analyses were performed in Single Cycle Kinetic (SCK) mode at 25° C.
as §1

[7] = biological target: T4, Fc-fusion protein of human carbonic …; assay: SPR, captured hCAIX-Fc; t1/2 category A: >15.0 min
[8] = biological target: T6, human carbonic anhydrase IX (CAIX) (human, UniProt Q16790 38-459); assay: FACS competition, HT-29 cells, tracer printed 3BP-414 (probably 3BP-4149); pIC50 category B: 7.1-8.0
Protocol: (§2) CAIX-expressing human HT-29 colorectal cancer cells (DSMZ, RRID: CVCL_0320) were cultured in McCoys's 5A modified medium (Biochrom, #F1015) including 10% fetal calf serum (FCS), 2 mM L-glutamine, 100 U/ml penicillin and 100 μg/mL streptomycin. Cells were detached with Accutase (Biolegend, #423201) and washed in FACS buffer (PBS including 1% FCS). Cells were diluted in FACS buffer to a final concentration of 500.000 cells per ml. 200 μL of the cell suspension were transferred to a u-shaped non-binding 96-well plate (Greiner) and cells were washed in ice-cold FACS buffer.
(§3) When biotinylated compounds were used an additional incubation step with 1 μg/mL APC-Streptavidin (Miltenyi; #130-106-791) in 50 μL FACS buffer for 30 minutes on ice was performed.
(§4) Cells were washed twice with ice-cold FACS buffer and analyzed in an Attune NxT flow cytometer (Thermo Fisher). Median fluorescence intensities (MFI) of the APC/Cy5-channel were calculated by Attune NxT software.

[9] = biological target: Human carbonic anhydrase IX Fc-fusion protein (CAIX, Sino Biological, 10107-H02H) (human, UniProt Q16790 38-414); assay: SPR (Biacore T200), CAIX-Fc captured by anti-human Fc antibody, peptide as analyte, single cycle kinetics, 25 C, 1:1 Langmuir fit
Protocol: Surface Plasmon Resonance (SPR) studies were performed on a Biacore™ T200 using a ligand capture approach. Basically, anti-human Fc antibodies were immobilized on the surface of a sensor chip and CAIX was captured on the functionalized surface via its Fc Tag.

[10] = biological target: T7, murine carbonic anhydrase 9 (CAIX) (mouse, UniProt Q8VHB5 32-437); assay: radioligand binding, 111In-labeled compound, CHO cells with mouse CAIX; pKD category B: 7.1-8.0
T7 construct: On transfected CHO-VGT cells; also called mouse CAIX
T7 sequence (Q8VHB5 32-437 limits assumed): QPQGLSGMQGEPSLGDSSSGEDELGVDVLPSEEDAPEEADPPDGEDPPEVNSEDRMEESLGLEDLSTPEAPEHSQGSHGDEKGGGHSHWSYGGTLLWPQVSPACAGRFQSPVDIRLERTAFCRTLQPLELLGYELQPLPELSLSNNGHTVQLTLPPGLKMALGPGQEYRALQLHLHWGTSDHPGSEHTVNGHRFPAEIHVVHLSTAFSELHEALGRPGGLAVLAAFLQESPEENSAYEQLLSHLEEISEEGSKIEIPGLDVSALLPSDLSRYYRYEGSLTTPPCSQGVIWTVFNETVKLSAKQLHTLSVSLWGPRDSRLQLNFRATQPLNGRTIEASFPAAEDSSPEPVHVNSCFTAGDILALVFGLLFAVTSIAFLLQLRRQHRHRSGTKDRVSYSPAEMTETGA

[11] = biological target: T8, canine carbonic anhydrase 9 (CAIX) (dog); assay: radioligand binding, 111In-labeled compound, CHO cells with dog CAIX; pKD category A: >8.0
T8 construct: On transfected CHO-VGT cells; also called dog CAIX
T8 sequence (chain, as listed by the source limits assumed): as the sequence (chain, as listed by the source limits assumed) above
Protocol: (§5) CHO-VGT cells were transfected with the human, dog, and mouse CAIX (InSCREENex GmbH) and cultured in Ham's F-12 medium (Sigma-Aldrich #N4888) supplemented with 10% fetal bovine serum (FCS), 2 mM L-glutamine, 100 U/mL Penicillin, and 0.1 mg/mL streptomycin. […] Cell concentrations were adjusted to 3×10⁵ mL⁻¹, and 1.000 μL of the suspension per well were dispensed into flat-clear-bottom 24 well plates.
(§6) Approximately 24 hours after re-seeding, the medium was aspirated and the cells were washed once with 1000 μL assay medium (Ham's medium without additives). To determine total binding, 700 μL of assay medium and 100 μL of the radioligand dilutions were added to the wells in triplicates. To determine non-specific binding, 600 μL of binding medium, 100 μL of the radioligand dilutions and 100 μL of a blocking solution containing 8 μM non-labeled compound were added to the wells in triplicates. […] An aliquot of each radioligand dilution was included in the gamma counter measurements to allow for determination of their actual concentrations via their known specific activity.

[12] = biological target: T6, human carbonic anhydrase IX (CAIX); assay: radioligand binding, 111In-labeled compound, CHO cells with human CAIX; pKD category A: >8.0
Protocol: as §5, §6

[13] = biological target: T7, murine carbonic anhydrase 9 (CAIX); assay: radioligand binding, 111In-labeled compound, CHO cells with mouse CAIX; pKD category A: >8.0
Protocol: as §5, §6

[14] = biological target: T9, human carbonic anhydrase 9 (CAIX) (human, UniProt Q16790 38-459); assay: FACS binding assay on CAIX-expressing HT-29 cells, Cy5-labeled compound; pEC50 category (A = pEC50 >8.0)
Protocol: as §2, §3, §4

[15] = biological target: T9, human carbonic anhydrase 9 (CAIX); assay: FACS binding assay on CAIX-expressing HT-29 cells, biotinylated compound detected with APC-streptavidin; pEC50 category (B = pEC50 between 7.1 and 8.0)
Protocol: as §2, §3, §4

B1: [^111In]In-DPI-4452 (peptide)
peptide: {DOTA-PPAc}-QCE[dP]D[Phe(3-NHCO(CH2)3SO2NH2)]LTWSC-NH2
modifications: linker 2-11 via mXylylene; also: 111In complexed in DOTA
notes: Cyclic peptide with chelator DOTA complexing In-111; X stands for the non-natural residue Af3(Cpsu); also called ^111In-DOTA-PPAc-Q-[C(3MeBn)-EPD-Af3(Cpsu)-LTWSC]-NH2; ^111In-3BP-4452
pKd [1]: 9.5 -log10(M)

Binder: {DOTA-Sni}-YCE[dP]D[Phe(3-NHCO(CH2)3SO2NH2)]LTWSC-NH2 (linker 2-11 via mXylylene; reading uncertain) [3BP-4454]
pIC50 [8]: 7.1 to 8 pic50
pKD [4]: > 8 pkd
t1/2 (half-life of the complex, SPR) [7]: > 0.25 h

B3: natLu-DPI-4452 (LuDOTA-PPAc-Gln-[Cys(3MeBn)-Glu-pro-Asp-Af3(Cpsu)-Leu-Thr-Trp-Ser-Cys]-NH2) (peptide)
peptide: {DOTA-PPAc(3)}-QCE[dP]D[Phe(3-NHCO(CH2)3SO2NH2)]LTWSC-NH2
modifications: linker 2-11 via mXylylene; also: natLu chelated by N-terminal DOTA
notes: Lutetium complex of DPI-4452; also called 3BP-4555
t1/2 (dissociation half-life) [9]: 2.05 h

Binder: {111In‑DOTA}-QCE[dP]D[Aph(SaPr)(5)]LTWSC-NH2 (linker 2-11 via mXylylene, also called [111In]In-DPI-4501) [111In-3BP-4501]
pKD [10]: 7.1 to 8 pkd
pKD [11]: > 8 pkd

Binder: {Cy5SO3-APAc″}-VYCE[dP]DWLTWSC-NH2 (linker 3-12 via mXylylene, Cyclic peptide with a fluorophore) [3BP-4149: Cy5SO3-APAc-Val-Tyr-[Cys(3MeBn)-Glu-pro-Asp-Trp-Leu-Thr-Trp-Ser-Cys]-NH2]
pEC50 [14]: > 8 pec50

Continued, values first:

pKD [2]: < 6 pkd
pKD [3]: < 6 pkd
pKD [4]: > 8 pkd
pKD [5]: < 6 pkd
pKD [6]: > 8 pkd
t1/2 (half-life of the complex, SPR) [7]: > 0.25 h
Binder: {DOTA-APAc″}-VDCE[dP]DWLTW[Dap]C-NH2 (lactam 2-11; linker 3-12 via mXylylene) [3BP-4174]

t1/2 (dissociation half-life) [9]: 1.87 h
B2: natGa-DPI-4452 (GaDOTA-PPAc-Gln-[Cys(3MeBn)-Glu-pro-Asp-Af3(Cpsu)-Leu-Thr-Trp-Ser-Cys]-NH2) (peptide)
peptide: {DOTA-PPAc(3)}-QCE[dP]D[Phe(3-NHCO(CH2)3SO2NH2)]LTWSC-NH2
modifications: linker 2-11 via mXylylene; also: natGa chelated by N-terminal DOTA
notes: Gallium complex of DPI-4452; also called 3BP-4529

pKD [12]: > 8 pkd
pKD [13]: > 8 pkd
pKD [11]: > 8 pkd
Binder: {111In‑DOTA}-ECE[dP]D[Phe(3-NHCO(CH2)3SO2NH2)]LTW[Dap]C-NH2 (lactam 1-10; linker 2-11 via mXylylene, also called 3BP-4503 (111In-labeled)) [111In-3BP-4503]

pEC50 [15]: 7.1 to 8 pec50
B4: 3BP-2775: H-Met-Gln-[Cys(3MeBn)-Glu-Ile-Trp-Val-Asp-Gly-Trp-Val-Thr-Cys]-Ttds-Lys(Bio)-NH2 (peptide)
peptide: H-MQCEIWVDGWVTC[Ttds(4)]K(Biotin)-NH2
modifications: linker 3-13 via mXylylene
SMILES: CC[C@H](C)[C@@H]1NC(=O)[C@H](CCC(=O)O)NC(=O)[C@@H](NC(=O)[C@H](CCC(N)=O)NC(=O)[C@@H](N)CCSC)CSCc2cccc(c2)CSC[C@@H](C(=O)NCCCOCCOCCOCCCNC(=O)CCC(=O)N[C@@H](CCCCNC(=O)CCCC[C@@H]2SC[C@@H]3NC(=O)N[C@@H]32)C(N)=O)NC(=O)[C@H]([C@@H](C)O)NC(=O)[C@H](C(C)C)NC(=O)[C@H](Cc2c[nH]c3ccccc23)NC(=O)CNC(=O)[C@H](CC(=O)O)NC(=O)[C@H](C(C)C)NC(=O)[C@H](Cc2c[nH]c3ccccc23)NC1=O
notes: Cyclic peptide, biotinylated
